Laboratory results as given in article PMC6021441, “Structural basis of the correct subunit assembly, aggregation, and intracellular degradation of nylon hydrolase” (Scientific Reports, 2018).

How the values were obtained:
[1] = target: T1, NylCp2-G^122 alpha subunit (D122G) (Arthrobacter, UniProt Q79F77 1-266, D122G); assay: crystal structure; sitting-drop vapor diffusion, ammonium sulfate, 0.1 M HEPES pH 7.5, 0.2 M NaCl, 25% glycerol; space group C222_(1), two molecules (A/B dimer) in the asymmetric unit, tetramer by the crystallographic two-fold axis; conditions: both partners purified
T1 construct: NylCp2 alpha subunit with D122G; also called α subunit of NylCp2-G^122; source: E. coli JM109, purified with the beta subunit as the active enzyme
T1 sequence (looked up): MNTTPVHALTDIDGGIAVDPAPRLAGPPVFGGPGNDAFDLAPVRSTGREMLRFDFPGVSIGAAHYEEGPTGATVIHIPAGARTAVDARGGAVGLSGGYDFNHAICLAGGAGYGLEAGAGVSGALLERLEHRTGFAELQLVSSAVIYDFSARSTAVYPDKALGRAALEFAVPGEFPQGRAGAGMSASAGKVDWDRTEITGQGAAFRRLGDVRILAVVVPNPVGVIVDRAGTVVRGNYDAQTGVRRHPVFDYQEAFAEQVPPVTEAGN

[2] = target: T2, NylCp2-V^122 alpha subunit (D122V) (Arthrobacter, UniProt Q79F77 1-266, D122V); assay: as above; conditions: both partners purified
T2 construct: NylCp2 alpha subunit with D122V; also called α subunit of NylCp2-V^122; source: E. coli JM109, purified with the beta subunit as the active enzyme
T2 sequence (looked up): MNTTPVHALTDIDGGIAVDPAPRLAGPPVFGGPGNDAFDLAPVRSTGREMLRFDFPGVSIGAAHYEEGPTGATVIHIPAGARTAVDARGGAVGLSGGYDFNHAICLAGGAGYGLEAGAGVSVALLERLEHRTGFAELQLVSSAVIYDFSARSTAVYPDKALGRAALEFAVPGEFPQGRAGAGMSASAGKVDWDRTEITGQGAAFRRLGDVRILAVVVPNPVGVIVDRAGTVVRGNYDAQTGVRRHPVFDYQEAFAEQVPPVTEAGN

binding result [1]: binds | binding result [2]: binds
B1: NylCp2 beta subunit (9 kDa) (domain or fragment, Arthrobacter, UniProt Q79F77 267-355, looked up)
chain: TTISAIVTNVRMSPVELNQFAKQVHSSMHRGIQPFHTDMDGDTLFAVTTDEIDLPTTPGSSRGRLSVNATALGAIASEVMWDAVLEAGK
notes: NylCp2, beta subunit made by autocleavage of the 355-residue precursor between Asn266 and Thr267; the same in the wild type and in the mutants crystallised here (all their substitutions lie in the alpha subunit); also called β subunit; source: E. coli JM109, purified with the alpha subunit as the active enzyme
